According to patent publication US20240092919A1 (Ablynx, published 2024):
Where “and” joins values, the source holds several entries; their conditions need not be identical. Identical values can stand only once.

Experiments:
human GPC3 on cells = target: T1, human GPC3 on cells (human, UniProt P51654 25-554); assay: flow cytometry on cells; upper end, tied by Table 44 to CHO huGPC3
T1 construct: whole, on cells; also called CHO huGPC3; CHO-Flp-In cells overexpressing human GPC3

cyno GPC3 on cells = target: T2, cyno GPC3 on cells (cynomolgus monkey, UniProt A0A2K5VK50 24-553); assay: flow cytometry on cells; lower end, tied by Table 44 to CHO cyGPC3
T2 construct: whole, on cells; also called CHO cyGPC3; CHO-Flp-In cells overexpressing cyno GPC3

[1] = target: T3, cynomolgus CD123 on cells (cynomolgus); assay: flow cytometry on HEK293 cells transfected with cynomolgus CD123
T3 construct: whole, on cells; also called HEK293 cyno CD123; cyCD123

human CD123 on cells [2] = target: T4, human CD123 on cells (human, UniProt P26951 19-378); assay: flow cytometry on CHO Flp-In huCD123 cells; FLAG-tagged ISVD, anti-FLAG + APC goat anti-mouse; MFI (median APC) [panel CHO Flp-In huCD123 cells]
T4 construct: also called CHO human CD123; CHO hu CD123
Target sequence in this assay (P26951 19-378 limits assumed): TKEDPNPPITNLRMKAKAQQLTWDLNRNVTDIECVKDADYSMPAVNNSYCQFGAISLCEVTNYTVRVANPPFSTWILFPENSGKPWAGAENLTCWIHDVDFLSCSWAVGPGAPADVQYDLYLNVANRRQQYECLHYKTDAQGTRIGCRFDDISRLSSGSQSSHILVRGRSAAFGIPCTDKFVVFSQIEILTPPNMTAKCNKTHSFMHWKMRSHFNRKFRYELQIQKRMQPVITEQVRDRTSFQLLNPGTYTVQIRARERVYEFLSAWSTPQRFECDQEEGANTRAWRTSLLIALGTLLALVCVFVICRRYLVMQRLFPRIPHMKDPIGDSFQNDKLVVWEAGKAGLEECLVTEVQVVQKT

human CD123 on cells [3] = target: T4, human CD123 on cells; assay: flow cytometry on CHO cells transfected with human CD123
Target sequence in this assay (P26951 19-378 limits assumed): as above

[4] = target: T3, cynomolgus CD123 on cells; assay: flow cytometry on HEK Flp-In cyCD123 cells; FLAG-tagged ISVD, anti-FLAG + APC goat anti-mouse; MFI (median APC) [panel HEK Flp-In cyCD123 cells]
cynomolgus serum albumin [5] = target: T5, cynomolgus serum albumin (cynomolgus monkey, UniProt A2V9Z4 25-608); assay: SPR (ProteOn XPR36, 37°C), albumin immobilised
T5 construct: also called CSA

human CD123 on cells [6] = target: human CD123 on cells (human, UniProt P26951 19-378); assay: cell-based or functional assay
human CD33 on cells [7] = target: human CD33 on cells (human, UniProt P20138 18-364); assay: cell-based or functional assay
Target sequence in this assay (P20138 18-364): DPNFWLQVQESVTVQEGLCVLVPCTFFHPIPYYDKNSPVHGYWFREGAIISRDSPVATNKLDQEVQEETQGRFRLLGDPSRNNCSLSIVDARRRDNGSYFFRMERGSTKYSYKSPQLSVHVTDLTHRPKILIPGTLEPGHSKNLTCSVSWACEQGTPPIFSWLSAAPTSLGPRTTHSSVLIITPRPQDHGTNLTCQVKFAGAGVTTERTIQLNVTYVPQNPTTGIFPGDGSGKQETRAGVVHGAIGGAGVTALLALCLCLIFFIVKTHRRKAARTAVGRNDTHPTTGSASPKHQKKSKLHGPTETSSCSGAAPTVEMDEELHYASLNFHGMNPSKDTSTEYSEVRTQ

[8] = target: cynomolgus TCR on primary cynomolgus T cells (cynomolgus); assay: cell-based or functional assay
[9] = target: T3, cynomolgus CD123 on cells; assay: cell-based or functional assay
cynomolgus CD33 on cells = cynomolgus CD33 on cells (cynomolgus); assay: cell-based or functional assay
human CD33 on cells [10] = target: T6, human CD33 on cells (human, UniProt P20138 18-364); assay: cell-based or functional assay; remark: listed apart in the source
T6 sequence (P20138 18-364): as above

human CD123 on cells [11] = target: T4, human CD123 on cells; assay: cell-based or functional assay; remark: listed apart in the source
[12] = target: T7, Cynomolgus TCR(AEA41865/AEA41866)-zipper protein (cynomolgus); assay: SPR, ProteOn XPR36, 37 C; TCR-zipper coated on GLC chip
T7 construct: also called cyTCR-zipper; cyTCR(AEA41865)-zipper
T7 TCR alpha: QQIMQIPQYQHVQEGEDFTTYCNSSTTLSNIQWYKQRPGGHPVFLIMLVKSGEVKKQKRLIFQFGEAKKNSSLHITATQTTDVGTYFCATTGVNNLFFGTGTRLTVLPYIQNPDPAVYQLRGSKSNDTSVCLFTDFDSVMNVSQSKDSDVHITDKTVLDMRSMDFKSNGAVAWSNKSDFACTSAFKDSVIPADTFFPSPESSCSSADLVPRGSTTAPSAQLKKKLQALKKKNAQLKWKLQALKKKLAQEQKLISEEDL
T7 TCR beta: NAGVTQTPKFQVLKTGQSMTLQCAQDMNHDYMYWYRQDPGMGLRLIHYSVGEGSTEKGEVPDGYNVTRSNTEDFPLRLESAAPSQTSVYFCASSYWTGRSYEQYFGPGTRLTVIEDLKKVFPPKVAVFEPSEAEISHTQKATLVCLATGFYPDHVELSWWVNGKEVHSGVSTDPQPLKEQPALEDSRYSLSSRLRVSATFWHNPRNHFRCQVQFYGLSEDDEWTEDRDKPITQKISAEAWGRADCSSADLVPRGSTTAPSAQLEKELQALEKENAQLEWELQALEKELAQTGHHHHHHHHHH

mouse serum albumin = target: T8, mouse serum albumin (mouse, UniProt P07724 25-608); assay: SPR, ProteOn XPR36, 37 C; albumin immobilised by amine coupling
T8 construct: also called MSA

cynomolgus serum albumin [13] = target: T9, cynomolgus serum albumin (cynomolgus); assay: as above
T9 construct: also called CSA

human serum albumin = target: T10, human serum albumin (human, UniProt P02768 25-609); assay: as above
T10 construct: also called HSA

huCD123-Fc = target: T11, huCD123-Fc (human, UniProt P26951 19-305); assay: SPR, ProteOn XPR36, 37 C; CD123-Fc captured on anti-huIgG (Fc)
T11 construct: also called Human CD123-Fc; not shown: Fc part, not described (captured by anti-huIgG (Fc))
T11 sequence: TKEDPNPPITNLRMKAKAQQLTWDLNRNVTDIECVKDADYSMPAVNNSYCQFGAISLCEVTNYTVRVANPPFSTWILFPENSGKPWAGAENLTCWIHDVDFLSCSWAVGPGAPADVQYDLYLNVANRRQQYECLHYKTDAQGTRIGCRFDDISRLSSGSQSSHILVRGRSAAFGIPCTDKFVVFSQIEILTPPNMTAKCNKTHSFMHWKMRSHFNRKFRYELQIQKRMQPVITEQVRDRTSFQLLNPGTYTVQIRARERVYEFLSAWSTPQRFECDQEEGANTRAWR

cyCD123-Fc = target: T12, cyCD123-Fc (cynomolgus); assay: as above
T12 construct: also called Cynomolgus CD123-Fc

[14] = target: T13, human TCR on primary human T cells (human, UniProt P01848 1-140; P01850 1-176); assay: cell-based or functional assay
T13 TCR alpha (looked up): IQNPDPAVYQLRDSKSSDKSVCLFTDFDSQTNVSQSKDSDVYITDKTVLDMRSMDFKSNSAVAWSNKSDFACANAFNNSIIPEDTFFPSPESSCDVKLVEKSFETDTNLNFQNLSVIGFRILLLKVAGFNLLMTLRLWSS
T13 TCR beta (looked up): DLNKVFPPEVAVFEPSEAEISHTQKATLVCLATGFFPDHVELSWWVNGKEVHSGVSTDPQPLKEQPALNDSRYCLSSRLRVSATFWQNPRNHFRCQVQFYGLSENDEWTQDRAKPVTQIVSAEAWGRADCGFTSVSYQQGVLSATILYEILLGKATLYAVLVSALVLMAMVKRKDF

human CD33 on cells [15] = target: T6, human CD33 on cells; assay: flow cytometry on CHO Flp-In huCD33-long cells; by paragraph 678 with 30 uM HSA, anti-VHH mAb ABH0077 + APC goat anti-mouse; MFI (mean APC) [panel CHO Flp-In huCD33-long cells]
[16] = target: T14, cynomolgus TCR on primary cynomolgus T cells (cynomolgus); assay: flow cytometry competition on primary cynomolgus T cells; competitor FLAG3His6 tagged monovalent TCR ISVD; global (weighted) IC50, n = 7
T14 construct: whole, on cells; also called cyno TCRαβ

[17] = target: T13, human TCR on primary human T cells; assay: flow cytometry competition on primary human T cells; competitor FLAG3His6 tagged monovalent TCR ISVD; global (weighted) IC50, n = 4
huCD33L-Fc = target: T15, huCD33L-Fc (human, UniProt P20138 18-259); assay: SPR, ProteOn XPR36, 37 C; CD33L-Fc captured on anti-huIgG (Fc)
T15 construct: also called Human CD33L-Fc; not shown: Fc part, not described (captured by anti-huIgG (Fc))

cyCD33L-Fc = target: T16, cyCD33L-Fc (cynomolgus); assay: as above
T16 construct: also called Cynomolgus CD33L-Fc

human CD123 on cells [18] = target: T4, human CD123 on cells; assay: flow cytometry on CHO Flp-In huCD123 cells; by paragraph 678 with 30 uM HSA, anti-VHH mAb ABH0077 + APC goat anti-mouse; MFI (mean APC) [panel CHO Flp-In huCD123 cells]

T8 sequence (P07724 25-608 limits assumed): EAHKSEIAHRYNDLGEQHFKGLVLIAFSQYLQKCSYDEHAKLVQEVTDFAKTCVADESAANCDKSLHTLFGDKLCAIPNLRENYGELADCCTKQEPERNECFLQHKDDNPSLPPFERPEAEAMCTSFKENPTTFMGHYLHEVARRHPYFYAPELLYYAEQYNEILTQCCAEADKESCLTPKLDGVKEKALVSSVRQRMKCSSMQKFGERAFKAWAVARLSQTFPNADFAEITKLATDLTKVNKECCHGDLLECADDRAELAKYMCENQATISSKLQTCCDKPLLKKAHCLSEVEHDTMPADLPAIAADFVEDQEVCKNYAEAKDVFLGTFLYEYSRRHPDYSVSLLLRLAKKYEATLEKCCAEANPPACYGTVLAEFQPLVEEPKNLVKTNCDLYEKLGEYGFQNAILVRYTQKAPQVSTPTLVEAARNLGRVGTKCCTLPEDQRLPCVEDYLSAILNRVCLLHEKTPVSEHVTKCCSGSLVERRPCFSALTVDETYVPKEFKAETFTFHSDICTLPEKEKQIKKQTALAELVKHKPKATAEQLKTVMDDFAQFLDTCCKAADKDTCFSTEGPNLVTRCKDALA
T9 sequence (A2V9Z4 25-608): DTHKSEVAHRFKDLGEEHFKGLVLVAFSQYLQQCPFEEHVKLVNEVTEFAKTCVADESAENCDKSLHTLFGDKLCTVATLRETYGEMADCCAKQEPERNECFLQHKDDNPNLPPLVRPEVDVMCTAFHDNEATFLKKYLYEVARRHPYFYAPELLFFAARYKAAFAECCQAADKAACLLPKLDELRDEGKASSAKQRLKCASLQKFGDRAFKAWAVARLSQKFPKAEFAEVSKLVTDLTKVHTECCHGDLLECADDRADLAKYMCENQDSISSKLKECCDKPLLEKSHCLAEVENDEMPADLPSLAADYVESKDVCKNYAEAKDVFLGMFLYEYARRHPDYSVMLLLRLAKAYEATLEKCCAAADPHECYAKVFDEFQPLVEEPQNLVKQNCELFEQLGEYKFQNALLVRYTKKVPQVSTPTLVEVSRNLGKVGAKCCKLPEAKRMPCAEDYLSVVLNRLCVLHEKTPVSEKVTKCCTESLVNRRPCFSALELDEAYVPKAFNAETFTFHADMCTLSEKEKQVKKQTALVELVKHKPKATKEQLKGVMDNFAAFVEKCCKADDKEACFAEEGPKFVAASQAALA
T5 sequence (A2V9Z4 25-608 limits assumed): as the sequence (A2V9Z4 25-608) above
T15 sequence (P20138 18-259 limits assumed): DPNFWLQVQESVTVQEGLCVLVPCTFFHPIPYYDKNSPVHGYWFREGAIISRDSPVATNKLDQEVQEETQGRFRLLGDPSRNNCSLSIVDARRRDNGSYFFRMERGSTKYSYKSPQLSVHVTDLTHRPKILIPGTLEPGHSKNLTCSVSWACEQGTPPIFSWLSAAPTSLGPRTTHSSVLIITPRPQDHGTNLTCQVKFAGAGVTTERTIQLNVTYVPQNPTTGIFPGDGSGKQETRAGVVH

B1: A022600424 (other)
chain: DVQLVESGGGVVQPGGSLRLSCVASGYVHKINFYGWYRQAPGKEREKVAHISIGDQTDYADSAKGRFTISRDESKNTVYLQMNSLRPEDTAAYYCRALSRIWPYDYWGQGTLVTVSSGGGGSEVQLVESGGGVVQPGGSLRLSCAASGFTFSSFAMTWVRRPPGKGLEWVATITNKGVTSYADSVKGRFTISRDNAKNTLYLQMNSLRPEDTALYICANARRTGPRAPTDIGSYRGQGTLVTVSSGGGGSGGGSEVQLVESGGGVVQPGGSLRLSCAASGSIFRSVFSSSTMEWYRQAPGKKRELVARIAPGEGTYYGALYADSVKGRFTISRDNAKNTVYLQMNSLRPEDTALYYCASGVAWGQGTLVTVSSGGGGSGGGSEVQLVESGGGVVQPGGSLRLSCAASGFTFRSFGMSWVRQAPGKGPEWVSSISGSGSDTLYADSVKGRFTISRDNSKNTLYLQMNSLRPEDTALYYCTIGGSLSRSSQGTLVTVSSA
notes: also called T017000680-5GS-A022600351-9GS-A022600314-9GS-ALB23002-A
- EC50 (human GPC3 on cells): 1 to 2 nM
- EC50 (cyno GPC3 on cells): 1 to 2 nM

B2: monovalent CD123 building block (SEQ ID NO: 462) (VHH)
VHH: EVQLVESGGGVVQPGGSLRLSCAASGVIFSGNVMGWYRRQAPGKEREWVAAIAEGGSILYRDSVKGRFTISRDNAKNTVYLQMNSLRPEDTALYYCNSHPPVLPYWGQGTLVTVSS
- EC50 [1]: 0.8 nM
- EC50 (read off the curve) (human CD123 on cells [2]): ~0.7 nM
- EC50 (human CD123 on cells [3]): 0.31 nM and 0.2 nM
- EC50 (read off the curve) [4]: ~0.3 nM

B3: TCRαβ-CD33-CD123 multispecific ISVD construct (other)
chain: DVQLVESGGGVVQPGGSLRLSCVASGYVHKINFYGWYRQAPGKEREKVAHISIGDQTDYADSAKGRFTISRDESKNTVYLQMNSLRPEDTAAYYCRALSRIWPYDYWGQGTLVTVSSGGGGSGGGSEVQLVESGGGVVQPGGSLRLSCAASGGVFRLNSMGWFRQAPGKQRELVAIITSDGDTNYADSVKGRFTISRDQAKNTVYLQMNSLRPEDTALYYCQITYSTSSYSFPINTWGQGTLVTVSSGGGGSGGGSEVQLVESGGGVVQPGGSLRLSCAASGVIFSGNVMGWYRRQAPGKEREWVAAIAEGGSILYRDSVKGRFTISRDNAKNTVYLQMNSLRPEDTALYYCNSHPPVLPYWGQGTLVTVSSGGGGSGGGGSGGGGSGGGGSEVQLVESGGGVVQPGGSLRLSCAASGFTFRSFGMSWVRQAPGKGPEWVSSISGSGSDTLYADSVKGRFTISRDNSKNTLYLQMNSLRPEDTALYYCTIGGSLSRSSQGTLVTVSSA
notes: also called A025001562; CD123-CD33-TCR multispecific ISVD construct
- binding result (cynomolgus serum albumin [5]): binds
- Global IC50, impedance-based (xCELLigence) human T cell mediated killing of CHO hu CD123 cells (human CD123 on cells [6]): 0.025 nM
- Global IC50, impedance-based (xCELLigence) human T cell mediated killing of CHO hu CD33 cells (human CD33 on cells [7]): 0.054 nM

B4: TCRαβ-CD33-CD123 multispecific ISVD construct (SEQ ID NO: 460) (other)
chain: DVQLVESGGGVVQPGGSLRLSCVASGYVHKINFYGWYRQAPGKEREKVAHISIGDQTDYADSAKGRFTISRDESKNTVYLQMNSLRPEDTAAYYCRALSRIWPYDYWGQGTLVTVSSGGGGSGGGSEVQLVESGGGVVQPGGSLRLSCAASGGVFRLNSMGWFRQAPGKQRELVAIITSDGDTNYADSVKGRFTISRDQAKNTVYLQMNSLRPEDTALYYCQITYSTSSYSFPINTWGQGTLVTVSSGGGGSGGGSEVQLVESGGGVVQPGGSLRLSCAASGVIFSGNVMGWYRRQAPGKEREWVAAIAEGGSILYRDSVKGRFTISRDNAKNTVYLQMNSLRPEDTALYYCNSHPPVLPYWGQGTLVTVSSGGGGSGGGGSGGGGSGGGGSEVQLVESGGGVVQPGGSLRLSCAASGFTFRSFGMSWVRQAPGKGPEWVSSISGSGSDTLYADSVKGRFTISRDNSKNTLYLQMNSLRPEDTALYYCTIGGSLSRSSQGTLVTVSSA
notes: also called A025001562; TCR-CD33-CD123
- EC50 (M), cynomolgus T cell mediated MOLM-13 cell killing, E:T 10:1 [8]: 1.36e-11 M
- IC50 (M), impedance based cynomolgus T cell mediated CHO Flp-In cynoCD123 cell killing, E:T 15:1, 50 uM HSA [9]: 1.4e-12 M
- IC50 (M), impedance based cynomolgus T cell mediated CHO Flp-In cynoCD33 cell killing, E:T 15:1, 50 uM HSA (cynomolgus CD33 on cells): 6.2e-12 M
- Global IC50 (M), impedance based human T cell mediated CHO hu CD33 cell killing, E:T 15:1, 50 uM HSA (n = 4) (human CD33 on cells [10]): 1.1e-10 M
- Global IC50 (M), impedance based human T cell mediated CHO hu CD123 cell killing, E:T 15:1, 50 uM HSA (n = 7) (human CD123 on cells [11]): 4.4e-11 M
- Kd [12]: 6.7 nM
- Kd (mouse serum albumin): < 500 nM
- Kd (cynomolgus serum albumin [13]): 7.9 nM
- Kd (human serum albumin): 9.7 nM
- Kd (huCD123-Fc): 0.59 nM
- Kd (cyCD123-Fc): 2 nM
- Global EC50 (M), flow cytometry human T cell mediated MOLM-13 cell killing, E:T 10:1, 50 uM HSA (n = 13) [14]: 1.8e-11 M
- EC50 (read off the curve) (human CD33 on cells [15]): ~70 nM
- IC50 [16]: 729 nM
- IC50 [17]: 218 nM
- Kd (huCD33L-Fc): 7.6 nM
- Kd (cyCD33L-Fc): 6.9 nM
- EC50 (read off the curve) (human CD123 on cells [18]): ~10 nM
